Target: T1, human B cell maturation antigen (BCMA) (human, UniProt Q02223 1-184)
T1 sequence (looked up): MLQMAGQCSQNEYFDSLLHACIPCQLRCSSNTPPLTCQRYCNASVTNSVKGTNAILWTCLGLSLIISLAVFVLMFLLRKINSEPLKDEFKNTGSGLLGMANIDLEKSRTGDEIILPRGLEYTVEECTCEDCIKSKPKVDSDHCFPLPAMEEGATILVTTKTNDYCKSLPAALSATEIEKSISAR
Experiment: cell-based or functional assay

IC50 (ng/ml) of redirected lysis, H929 cells co-cultured with healthy donor T cells (E:T 1:1, 72 h), DMSO control, mean of 3 donors: 3.42 ng/mL
IC50 (ng/ml) of redirected lysis, H929 cells co-cultured with healthy donor T cells (E:T 1:1, 72 h), with 1 µM dexamethasone, mean of 3 donors: 6.52 ng/mL
IC50 (ng/ml) of redirected lysis, KMS12-PE cells co-cultured with healthy donor T cells (E:T 1:1, 72 h), DMSO control, mean of 3 donors: 0.2 ng/mL
IC50 (ng/ml) of redirected lysis, KMS12-PE cells co-cultured with healthy donor T cells (E:T 1:1, 72 h), with 1 µM dexamethasone, mean of 3 donors: 3.61 ng/mL
IC50 (ng/ml) of redirected lysis, MM1S cells co-cultured with healthy donor T cells (E:T 1:1, 72 h), DMSO control, mean of 3 donors: 0.21 ng/mL
IC50 (ng/ml) of redirected lysis, MM1S cells co-cultured with healthy donor T cells (E:T 1:1, 72 h), with 1 µM dexamethasone, mean of 3 donors: 3.31 ng/mL
IC50 (ng/ml) of redirected lysis, SKMM2 cells co-cultured with healthy donor T cells (E:T 1:1, 72 h), DMSO control, mean of 3 donors: 0.09 ng/mL
IC50 (ng/ml) of redirected lysis, SKMM2 cells co-cultured with healthy donor T cells (E:T 1:1, 72 h), with 1 µM dexamethasone, mean of 3 donors: 0.34 ng/mL
B1: CC-93269 (42-TCBcv) (bispecific antibody, human IgG1, kappa, L234A L235A)
heavy 1: not shown
heavy 2: EVQLLESGGGLVQPGGSLRLSCAASGFTFSDNAMGWVRQAPGKGLEWVSAISGPGSSTYYADSVKGRFTISRDNSKNTLYLQMNSLRAEDTAVYYCAKVLGWFDYWGQGTLVTVSSASTKGPSVFPLAPSSKSTSGGTAALGCLVEDYFPEPVTVSWNSGALTSGVHTFPAVLQSSGLYSLSSVVTVPSSSLGTQTYICNVNHKPSNTKVDEKVEPKSCDKTHTCPPCPAPEAAGGPSVFLFPPKPKDTLMISRTPEVTCVVVDVSHEDPEVKFNWYVDGVEVHNAKTKPREEQYNSTYRVVSVLTVLHQDWLNGKEYKCKVSNKALGAPIEKTISKAKGQPREPQVCTLPPSRDELTKNQVSLSCAVKGFYPSDIAVEWESNGQPENNYKTTPPVLDSDGSFFLVSKLTVDKSRWQQGNVFSCSVMHEALHNHYTQKSLSLSPGK
light 1: EIVLTQSPGTLSLSPGERATLSCRASQSVSDEYLSWYQQKPGQAPRLLIHSASTRATGIPDRFSGSGSGTDFTLAISRLEPEDFAVYYCQQYGYPPDFTFGQGTKVEIKRTVAAPSVFIFPPSDRKLKSGTASVVCLLNNFYPREAKVQWKVDNALQSGNSQESVTEQDSKDSTYSLSSTLTLSKADYEKHKVYACEVTHQGLSSPVTKSFNRGEC
light 2: EVQLLESGGGLVQPGGSLRLSCAASGFTFSTYAMNWVRQAPGKGLEWVSRIRSKYNNYATYYADSVKGRFTISRDDSKNTLYLQMNSLRAEDTAVYYCVRHGNFGNSYVSWFAYWGQGTLVTVSSASVAAPSVFIFPPSDEQLKSGTASVVCLLNNFYPREAKVQWKVDNALQSGNSQESVTEQDSKDSTYSLSSTLTLSKADYEKHKVYACEVTHQGLSSPVTKSFNRGEC

— patent US20230057602A1 (Bristol-Myers Squibb, published 2023)
